Data on one substance can be found in article PMC3307385.

This assay concerns the target mouse soluble recombinant SLLP1 (mouse) (UniProt Q9D9X8). The assay is described as follows: SPR.
Sequence of UniProt Q9D9X8 (Q9D9X8 95-221): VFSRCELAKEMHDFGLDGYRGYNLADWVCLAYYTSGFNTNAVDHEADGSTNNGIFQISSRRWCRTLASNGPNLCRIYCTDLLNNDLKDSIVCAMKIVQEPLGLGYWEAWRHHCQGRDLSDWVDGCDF

Usually Kd stands for the constant that tells how readily two partners part at equilibrium. Take “recombinant mouse SAS1B (V2), full length doublet (~51, ~50 kD) (natural protein)”: the Kd came to 0.32 nM.
